The values that follow come from US20110268748A1 (UNIVERSITY OF ROCHESTER, published 2011).

The target of assay [1] is T1, Gal4NLBD589A (Gal4 DNA-binding domain fused to the Nurr1 ligand binding domain with alanine for aspartic acid … (UniProt P04386 1-147)).
T1 construct: also called pPC97-NLBD589A; pPC97NLBD589A
The experiment in a line: yeast two-hybrid, empty prey vector control, growth on -Leu/-Trp/-His (X-gal staining: White).

The target of assay [2] is T2, VP16-NuIP (HSV VP16 activation domain fused to full-length NuIP) (mouse, UniProt Q8BPQ7 1-1093).
T2 construct: also called pVP16NuIP
T2 sequence: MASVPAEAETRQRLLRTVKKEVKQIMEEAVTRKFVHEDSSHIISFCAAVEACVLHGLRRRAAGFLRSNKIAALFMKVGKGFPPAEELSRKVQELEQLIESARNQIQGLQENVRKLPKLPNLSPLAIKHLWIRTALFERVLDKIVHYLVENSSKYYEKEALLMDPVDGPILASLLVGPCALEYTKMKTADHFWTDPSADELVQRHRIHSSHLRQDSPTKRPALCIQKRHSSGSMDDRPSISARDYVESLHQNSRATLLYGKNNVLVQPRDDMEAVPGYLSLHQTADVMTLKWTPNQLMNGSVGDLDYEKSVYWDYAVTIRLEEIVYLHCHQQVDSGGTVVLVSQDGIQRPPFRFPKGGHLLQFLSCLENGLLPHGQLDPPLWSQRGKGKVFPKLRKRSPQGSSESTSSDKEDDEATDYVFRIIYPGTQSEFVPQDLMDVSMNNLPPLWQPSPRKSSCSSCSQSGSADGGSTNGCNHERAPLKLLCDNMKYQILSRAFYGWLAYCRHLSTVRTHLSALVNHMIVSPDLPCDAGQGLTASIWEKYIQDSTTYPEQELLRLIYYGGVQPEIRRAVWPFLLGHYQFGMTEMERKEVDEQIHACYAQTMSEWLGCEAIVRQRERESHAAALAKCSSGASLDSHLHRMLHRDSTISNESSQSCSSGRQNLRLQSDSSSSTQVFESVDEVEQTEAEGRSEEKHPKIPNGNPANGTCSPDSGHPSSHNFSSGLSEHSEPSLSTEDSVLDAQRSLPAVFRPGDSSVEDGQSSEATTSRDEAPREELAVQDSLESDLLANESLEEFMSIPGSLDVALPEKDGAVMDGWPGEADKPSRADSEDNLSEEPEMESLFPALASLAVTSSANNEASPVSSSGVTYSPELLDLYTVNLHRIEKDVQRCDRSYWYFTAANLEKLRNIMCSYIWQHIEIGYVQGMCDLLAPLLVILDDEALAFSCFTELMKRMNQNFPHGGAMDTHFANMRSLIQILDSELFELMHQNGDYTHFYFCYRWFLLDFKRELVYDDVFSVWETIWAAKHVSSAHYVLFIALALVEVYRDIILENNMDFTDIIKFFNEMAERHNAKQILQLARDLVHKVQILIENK
The experiment in a line: mammalian two-hybrid, luciferase reporter, MN9D cells.

Assay [3] deals with T3, pPC86-RXR (Gal4 activation domain fused to full-length human RXRα) (human, UniProt P19793 1-462).
T3 construct: also called pPC89RXR
T3 sequence (looked up): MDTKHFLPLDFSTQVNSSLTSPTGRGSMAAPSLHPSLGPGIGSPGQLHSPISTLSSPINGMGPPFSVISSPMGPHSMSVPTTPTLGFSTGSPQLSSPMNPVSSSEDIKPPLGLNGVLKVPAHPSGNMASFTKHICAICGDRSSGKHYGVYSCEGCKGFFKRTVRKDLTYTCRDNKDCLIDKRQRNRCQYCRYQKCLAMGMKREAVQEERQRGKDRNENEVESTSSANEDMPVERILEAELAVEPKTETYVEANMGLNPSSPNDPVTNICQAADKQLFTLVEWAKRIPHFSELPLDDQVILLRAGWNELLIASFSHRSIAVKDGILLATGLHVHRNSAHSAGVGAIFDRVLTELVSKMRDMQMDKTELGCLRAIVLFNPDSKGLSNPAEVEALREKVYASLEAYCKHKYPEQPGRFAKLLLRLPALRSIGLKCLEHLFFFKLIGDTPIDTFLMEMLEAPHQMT
The experiment in a line: yeast two-hybrid, growth on -Leu/-Trp/-His (X-gal staining: White).

B1: Gal4 activation domain alone (empty pPC86 vector) (other, UniProt P04386 768-881, looked up)
chain: ANFNQSGNIADSSLSFTFTNSSNGPNLITTQTNSQALSQPIASSNVHDNFMNNEITASKIDDGNNSKPLSPGWTDQTAYNAFGITTGMFNTTTMDDVYNYLFDDEDTPPNPKKE
notes: Empty prey vector control in yeast two-hybrid; also called pPC89
Take B1: in assay [1], the binding result is “no binding”.

B2: Gal4NLBDΔ583 (Gal4 DNA-binding domain fused to the Nurr1 ligand binding domain with the AF2 domain deleted) (other)
chain: DPSPPSPPVSLISALVRAHVDSNPAMTSLDYSRFQANPDYQMSGDDTQHIQQFYDLLTGSMEIIRGWAEKIPGFADLPKADQDLLFESAFLELFVLRLAYRSNPVEGKLIFCNGVVLHRLQCVRGFGEWIDSIVEFSSNLQNMNIDISAFSCIAALAMVTERHGLKEPKRVEELQNKIVNCLKDHVTFNNGGLNRPNYLSKLLGKLPELRTLCTQGLQRIFYLKLEDLVP
notes: Used under the same name as yeast bait (pPC97) and in the mammalian two-hybrid assay in MN9D cells; also called Gal4NLDBA583; Gal4NLBDp583
Take B2: the binding result in assay [2] is reported as “binds”; in assay [3], “no binding”.
